B1: CBL peptide 540-555 (E3 ubiquitin-protein ligase CBL), 16-mer library wild type / YES SH3 (YES1 SH3 domain, residues 90-152) (parent complex)
chain 1: RDLPPPPPPDRPYSVG
chain 2: not shown

Variants of: B1
Assay: proteomic peptide phage display deep mutational scan (ProP-PD DMS): M13 P8 16-mer library selected against immobilised GST-tagged bait for four days (rounds), NGS of the eluted pools per day and pseudo-replica; bait immobilised on MaxiSorp plates (10 µg), library pre-cleared on GST, 2 h binding at 4 °C, five washes; one round per day, days 1-4; value from days 2 and 3

Q: Which screen value does the source give for chain 1 P9D here?
A: The screen value was 0.00109 average fractional NGS count over selection days 2 and 3 (reads of this peptide / all reads for the bait, averaged over ….

Q: For chain 1 P9R, which screen value is on record?
A: The screen value was 0.000295 average fractional NGS count over selection days 2 and 3 (reads of this peptide / all reads for the bait, averaged over ….

Q: For chain 1 P9Q, which screen value is on record?
A: The screen value was 0.00144 average fractional NGS count over selection days 2 and 3 (reads of this peptide / all reads for the bait, averaged over ….

Q: For chain 1 P9S, which screen value is on record?
A: Its screen value is 0.000868 average fractional NGS count over selection days 2 and 3 (reads of this peptide / all reads for the bait, averaged over ….

Q: For chain 1 P9A, which screen value is on record?
A: Its screen value is 0.00224 average fractional NGS count over selection days 2 and 3 (reads of this peptide / all reads for the bait, averaged over ….

Q: With chain 1 P9W as the variant, how does the screen value read?
A: The screen value was 0.00602 average fractional NGS count over selection days 2 and 3 (reads of this peptide / all reads for the bait, averaged over ….

Q: With chain 1 P9L as the variant, how does the screen value read?
A: Its screen value is 0.00194 average fractional NGS count over selection days 2 and 3 (reads of this peptide / all reads for the bait, averaged over ….

Q: Which screen value does the source give for chain 1 D2I here?
A: Its screen value is 0.00123 average fractional NGS count over selection days 2 and 3 (reads of this peptide / all reads for the bait, averaged over ….

Q: How did the screen value turn out when chain 1 D2E was run?
A: The screen value was 0.0027 average fractional NGS count over selection days 2 and 3 (reads of this peptide / all reads for the bait, averaged over ….

Q: With chain 1 D2H as the variant, how does the screen value read?
A: Its screen value is 0.000405 average fractional NGS count over selection days 2 and 3 (reads of this peptide / all reads for the bait, averaged over ….

Q: How did the screen value turn out when chain 1 D2Q was run?
A: The screen value was 0.00168 average fractional NGS count over selection days 2 and 3 (reads of this peptide / all reads for the bait, averaged over ….

Q: How did the screen value turn out when chain 1 R11S was run?
A: Its screen value is 0.000485 average fractional NGS count over selection days 2 and 3 (reads of this peptide / all reads for the bait, averaged over ….

Q: For chain 1 R11P, which screen value is on record?
A: The screen value was 0.00145 average fractional NGS count over selection days 2 and 3 (reads of this peptide / all reads for the bait, averaged over ….

Q: How did the screen value turn out when chain 1 R11H was run?
A: The screen value was 0.000484 average fractional NGS count over selection days 2 and 3 (reads of this peptide / all reads for the bait, averaged over ….

Q: For chain 1 R11T, which screen value is on record?
A: Its screen value is 0.00408 average fractional NGS count over selection days 2 and 3 (reads of this peptide / all reads for the bait, averaged over ….

Q: Which screen value does the source give for chain 1 R11G here?
A: The screen value was 0.00318 average fractional NGS count over selection days 2 and 3 (reads of this peptide / all reads for the bait, averaged over ….

Q: How did the screen value turn out when chain 1 R11M was run?
A: Its screen value is 0.00776 average fractional NGS count over selection days 2 and 3 (reads of this peptide / all reads for the bait, averaged over ….

Q: chain 1 R11K was tested. Which screen value did it give?
A: Its screen value is 0.000739 average fractional NGS count over selection days 2 and 3 (reads of this peptide / all reads for the bait, averaged over ….

Q: How did the screen value turn out when chain 1 R11A was run?
A: The screen value was 8.11e-05 average fractional NGS count over selection days 2 and 3 (reads of this peptide / all reads for the bait, averaged over ….

Q: How did the screen value turn out when chain 1 R11E was run?
A: The screen value was 0.000556 average fractional NGS count over selection days 2 and 3 (reads of this peptide / all reads for the bait, averaged over ….

Q: With chain 1 R11D as the variant, how does the screen value read?
A: The screen value was 0.000209 average fractional NGS count over selection days 2 and 3 (reads of this peptide / all reads for the bait, averaged over ….

Q: chain 1 R11V was tested. Which screen value did it give?
A: Its screen value is 0.00622 average fractional NGS count over selection days 2 and 3 (reads of this peptide / all reads for the bait, averaged over ….

Q: Which screen value does the source give for chain 1 R11F here?
A: The screen value was 0.00146 average fractional NGS count over selection days 2 and 3 (reads of this peptide / all reads for the bait, averaged over ….

Q: With chain 1 R11L as the variant, how does the screen value read?
A: The screen value was 0.00999 average fractional NGS count over selection days 2 and 3 (reads of this peptide / all reads for the bait, averaged over ….

Q: With chain 1 P6V as the variant, how does the screen value read?
A: Its screen value is 0.0162 average fractional NGS count over selection days 2 and 3 (reads of this peptide / all reads for the bait, averaged over ….

Q: With chain 1 P6E as the variant, how does the screen value read?
A: The screen value was 0.000208 average fractional NGS count over selection days 2 and 3 (reads of this peptide / all reads for the bait, averaged over ….

Q: For chain 1 P6Y, which screen value is on record?
A: Its screen value is 0.000164 average fractional NGS count over selection days 2 and 3 (reads of this peptide / all reads for the bait, averaged over ….

Q: For chain 1 P6M, which screen value is on record?
A: Its screen value is 0.0066 average fractional NGS count over selection days 2 and 3 (reads of this peptide / all reads for the bait, averaged over ….

Q: How did the screen value turn out when chain 1 P6F was run?
A: Its screen value is 0.00211 average fractional NGS count over selection days 2 and 3 (reads of this peptide / all reads for the bait, averaged over ….

Q: Which screen value does the source give for chain 1 P6Q here?
A: Its screen value is 0.000768 average fractional NGS count over selection days 2 and 3 (reads of this peptide / all reads for the bait, averaged over ….

Q: With chain 1 P6A as the variant, how does the screen value read?
A: Its screen value is 0.0119 average fractional NGS count over selection days 2 and 3 (reads of this peptide / all reads for the bait, averaged over ….

Q: With chain 1 P6N as the variant, how does the screen value read?
A: The screen value was 0.000163 average fractional NGS count over selection days 2 and 3 (reads of this peptide / all reads for the bait, averaged over ….

Q: Which screen value does the source give for chain 1 P8V here?
A: The screen value was 0.0212 average fractional NGS count over selection days 2 and 3 (reads of this peptide / all reads for the bait, averaged over ….

Q: chain 1 P8A was tested. Which screen value did it give?
A: Its screen value is 0.00106 average fractional NGS count over selection days 2 and 3 (reads of this peptide / all reads for the bait, averaged over ….

Q: chain 1 P8S was tested. Which screen value did it give?
A: Its screen value is 0.00243 average fractional NGS count over selection days 2 and 3 (reads of this peptide / all reads for the bait, averaged over ….

Q: How did the screen value turn out when chain 1 P8N was run?
A: Its screen value is 0.00013 average fractional NGS count over selection days 2 and 3 (reads of this peptide / all reads for the bait, averaged over ….

Q: How did the screen value turn out when chain 1 P8K was run?
A: Its screen value is 0.000519 average fractional NGS count over selection days 2 and 3 (reads of this peptide / all reads for the bait, averaged over ….

Q: With chain 1 P8E as the variant, how does the screen value read?
A: Its screen value is 0.00198 average fractional NGS count over selection days 2 and 3 (reads of this peptide / all reads for the bait, averaged over ….

Q: chain 1 P8M was tested. Which screen value did it give?
A: The screen value was 0.00164 average fractional NGS count over selection days 2 and 3 (reads of this peptide / all reads for the bait, averaged over ….

Q: With chain 1 P8I as the variant, how does the screen value read?
A: The screen value was 0.000285 average fractional NGS count over selection days 2 and 3 (reads of this peptide / all reads for the bait, averaged over ….

Q: With chain 1 P8F as the variant, how does the screen value read?
A: The screen value was 0.00526 average fractional NGS count over selection days 2 and 3 (reads of this peptide / all reads for the bait, averaged over ….

Q: For chain 1 P8L, which screen value is on record?
A: The screen value was 0.000348 average fractional NGS count over selection days 2 and 3 (reads of this peptide / all reads for the bait, averaged over ….

Q: How did the screen value turn out when chain 1 P8W was run?
A: The screen value was 0.00267 average fractional NGS count over selection days 2 and 3 (reads of this peptide / all reads for the bait, averaged over ….

Q: For chain 1 R1I, which screen value is on record?
A: Its screen value is 0.00103 average fractional NGS count over selection days 2 and 3 (reads of this peptide / all reads for the bait, averaged over ….

Q: Which screen value does the source give for chain 1 R1L here?
A: Its screen value is 0.000379 average fractional NGS count over selection days 2 and 3 (reads of this peptide / all reads for the bait, averaged over ….

Q: Which screen value does the source give for chain 1 R1T here?
A: The screen value was 0.000703 average fractional NGS count over selection days 2 and 3 (reads of this peptide / all reads for the bait, averaged over ….

Q: Which screen value does the source give for chain 1 R1M here?
A: The screen value was 0.00223 average fractional NGS count over selection days 2 and 3 (reads of this peptide / all reads for the bait, averaged over ….

Q: How did the screen value turn out when chain 1 R1Q was run?
A: Its screen value is 7.8e-05 average fractional NGS count over selection days 2 and 3 (reads of this peptide / all reads for the bait, averaged over ….

Q: chain 1 R1N was tested. Which screen value did it give?
A: The screen value was 0.00136 average fractional NGS count over selection days 2 and 3 (reads of this peptide / all reads for the bait, averaged over ….

Q: Which screen value does the source give for chain 1 R1H here?
A: Its screen value is 0.0063 average fractional NGS count over selection days 2 and 3 (reads of this peptide / all reads for the bait, averaged over ….

Q: chain 1 R1F was tested. Which screen value did it give?
A: The screen value was 0.000504 average fractional NGS count over selection days 2 and 3 (reads of this peptide / all reads for the bait, averaged over ….

Q: With chain 1 R1P as the variant, how does the screen value read?
A: Its screen value is 0.000732 average fractional NGS count over selection days 2 and 3 (reads of this peptide / all reads for the bait, averaged over ….

Q: How did the screen value turn out when chain 1 P7H was run?
A: The screen value was 0.00103 average fractional NGS count over selection days 2 and 3 (reads of this peptide / all reads for the bait, averaged over ….

Q: For chain 1 P7N, which screen value is on record?
A: Its screen value is 0.000153 average fractional NGS count over selection days 2 and 3 (reads of this peptide / all reads for the bait, averaged over ….

Q: How did the screen value turn out when chain 1 P7A was run?
A: The screen value was 0.000371 average fractional NGS count over selection days 2 and 3 (reads of this peptide / all reads for the bait, averaged over ….

Q: For chain 1 P7I, which screen value is on record?
A: Its screen value is 0.000596 average fractional NGS count over selection days 2 and 3 (reads of this peptide / all reads for the bait, averaged over ….

Q: For chain 1 P7F, which screen value is on record?
A: The screen value was 0.00308 average fractional NGS count over selection days 2 and 3 (reads of this peptide / all reads for the bait, averaged over ….

Q: chain 1 P7M was tested. Which screen value did it give?
A: Its screen value is 0.00246 average fractional NGS count over selection days 2 and 3 (reads of this peptide / all reads for the bait, averaged over ….

Q: For chain 1 P7W, which screen value is on record?
A: The screen value was 0.000156 average fractional NGS count over selection days 2 and 3 (reads of this peptide / all reads for the bait, averaged over ….

Q: How did the screen value turn out when chain 1 P7Y was run?
A: Its screen value is 0.000167 average fractional NGS count over selection days 2 and 3 (reads of this peptide / all reads for the bait, averaged over ….

Q: With chain 1 P7K as the variant, how does the screen value read?
A: Its screen value is 0.000178 average fractional NGS count over selection days 2 and 3 (reads of this peptide / all reads for the bait, averaged over ….

Q: chain 1 P7R was tested. Which screen value did it give?
A: Its screen value is 0.000229 average fractional NGS count over selection days 2 and 3 (reads of this peptide / all reads for the bait, averaged over ….

Q: How did the screen value turn out when chain 1 P7Q was run?
A: The screen value was 0.000262 average fractional NGS count over selection days 2 and 3 (reads of this peptide / all reads for the bait, averaged over ….

Q: chain 1 P7L was tested. Which screen value did it give?
A: Its screen value is 0.00235 average fractional NGS count over selection days 2 and 3 (reads of this peptide / all reads for the bait, averaged over ….

Q: For chain 1 P7G, which screen value is on record?
A: Its screen value is 9.71e-05 average fractional NGS count over selection days 2 and 3 (reads of this peptide / all reads for the bait, averaged over ….

Q: With chain 1 P7E as the variant, how does the screen value read?
A: Its screen value is 0.000775 average fractional NGS count over selection days 2 and 3 (reads of this peptide / all reads for the bait, averaged over ….

Q: With chain 1 P7T as the variant, how does the screen value read?
A: The screen value was 0.00618 average fractional NGS count over selection days 2 and 3 (reads of this peptide / all reads for the bait, averaged over ….

Q: Which screen value does the source give for chain 1 V15N here?
A: Its screen value is 0.00181 average fractional NGS count over selection days 2 and 3 (reads of this peptide / all reads for the bait, averaged over ….

Q: Which screen value does the source give for chain 1 V15E here?
A: Its screen value is 0.00362 average fractional NGS count over selection days 2 and 3 (reads of this peptide / all reads for the bait, averaged over ….

Q: For chain 1 V15M, which screen value is on record?
A: Its screen value is 0.00453 average fractional NGS count over selection days 2 and 3 (reads of this peptide / all reads for the bait, averaged over ….

Q: How did the screen value turn out when chain 1 V15W was run?
A: Its screen value is 0.0167 average fractional NGS count over selection days 2 and 3 (reads of this peptide / all reads for the bait, averaged over ….

Q: Which screen value does the source give for chain 1 V15G here?
A: The screen value was 0.000446 average fractional NGS count over selection days 2 and 3 (reads of this peptide / all reads for the bait, averaged over ….

Q: How did the screen value turn out when chain 1 V15S was run?
A: Its screen value is 0.00131 average fractional NGS count over selection days 2 and 3 (reads of this peptide / all reads for the bait, averaged over ….

Q: With chain 1 V15P as the variant, how does the screen value read?
A: Its screen value is 0.00539 average fractional NGS count over selection days 2 and 3 (reads of this peptide / all reads for the bait, averaged over ….

Q: For chain 1 V15L, which screen value is on record?
A: Its screen value is 0.000286 average fractional NGS count over selection days 2 and 3 (reads of this peptide / all reads for the bait, averaged over ….
